# Laboratory results: the Immune Epitope Database (IEDB)
# Experiments:
# HLA-A*31:01 = experiment: IEDB peptide-MHC binding, purified MHC/competitive/fluorescence; filed as Kd, often an IC50 or EC50 that approximates it; ≥ and ≤ were set here for values at or beyond the usual limits of such assays
# HLA-A*03:01 [1] = experiment: IEDB peptide-MHC binding, purified MHC/direct/fluorescence; filed as Kd, often an IC50 or EC50 that approximates it; ≥ and ≤ were set here for values at or beyond the usual limits of such assays
# HLA-B*15:03 = experiment: IEDB peptide-MHC binding, purified MHC/competitive/radioactivity; filed as Kd, often an IC50 or EC50 that approximates it; ≥ and ≤ were set here for values at or beyond the usual limits of such assays
# HLA-B*15:01 [2] = experiment: as above
# HLA-A*11:01 = experiment: IEDB peptide-MHC binding, purified MHC/direct/fluorescence; filed as Kd, often an IC50 or EC50 that approximates it; ≥ and ≤ were set here for values at or beyond the usual limits of such assays
# HLA-A*03:01 [3] = experiment: IEDB peptide-MHC binding, purified MHC/competitive/fluorescence; filed as Kd, often an IC50 or EC50 that approximates it; ≥ and ≤ were set here for values at or beyond the usual limits of such assays
# HLA-B*08:01 = experiment: IEDB peptide-MHC binding, purified MHC/competitive/radioactivity; filed as Kd, often an IC50 or EC50 that approximates it; ≥ and ≤ were set here for values at or beyond the usual limits of such assays
# HLA-A*32:01 = experiment: as above
# HLA-A*30:01 = experiment: as above
# HLA-B*51:01 = experiment: IEDB peptide-MHC binding, purified MHC/competitive/fluorescence; filed as Kd, often an IC50 or EC50 that approximates it; ≥ and ≤ were set here for values at or beyond the usual limits of such assays
# HLA-B*57:01 = experiment: as above
# HLA-B*39:01 = experiment: as above
# HLA-B*15:17 = experiment: as above
# HLA-A*26:01 = experiment: as above
# HLA-B*46:01 = experiment: as above
# HLA-A*02:01 = experiment: as above
# HLA-A*69:01 = experiment: as above
# HLA-B*27:03 = experiment: as above
# HLA-A*02:19 = experiment: IEDB peptide-MHC binding, purified MHC/direct/fluorescence; filed as Kd, often an IC50 or EC50 that approximates it; ≥ and ≤ were set here for values at or beyond the usual limits of such assays
# HLA-A*24:03 = experiment: as above
# HLA-A*23:01 = experiment: as above
# HLA-A*02:16 = experiment: as above
# HLA-A*02:12 = experiment: as above
# HLA-A*68:02 = experiment: as above
# HLA-A*02:11 = experiment: as above
# HLA-A*02:03 = experiment: as above
# HLA-B*15:01 [4] = experiment: IEDB peptide-MHC binding, purified MHC/competitive/fluorescence; filed as Kd, often an IC50 or EC50 that approximates it; ≥ and ≤ were set here for values at or beyond the usual limits of such assays
# HLA-B*18:01 = experiment: as above
# HLA-A*29:02 = experiment: IEDB peptide-MHC binding, purified MHC/direct/fluorescence; filed as Kd, often an IC50 or EC50 that approximates it; ≥ and ≤ were set here for values at or beyond the usual limits of such assays
# HLA-A*01:01 = experiment: as above; details: source organism: Reston ebolavirus
# [5] = source organism: Vaccinia virus WR
# [6] = source organism: Listeria welshimeri serovar 6b str. SLCC5334
# [7] = source organism: Vaccinia virus Copenhagen
# [8] = source organism: Toxoplasma gondii
# [9] = source organism: Reston ebolavirus
# [10] = source organism: Escherichia coli 536
# [11] = source organism: Encephalitozoon cuniculi GB-M1
# [12] = source organism: Burkholderia mallei
# [13] = source organism: Entamoeba histolytica HM-1:IMSS
# [14] = source organism: Vibrio vulnificus YJ016
# [15] = source organism: dengue virus type 1
# [16] = source organism: Zaire ebolavirus
sequence,measurement,setting,value
GVALRSTYR,Kd,HLA-A*31:01; source organism: Mycobacterium tuberculosis H37Ra,0.0093 µM
same,Kd,HLA-A*03:01 [1]; source organism: Mycobacterium tuberculosis,1.81 µM
FLSEPYSYF,Kd,HLA-B*15:03; [5],29.3 nM
FMAYTTSHI,Kd,HLA-B*15:01 [2]; [5],0.132 µM
same,Kd,HLA-B*15:03; [5],7.58 nM
VLDCRTAFK,Kd,HLA-A*31:01; source organism: Yellow fever virus,0.772 µM
same,Kd,HLA-A*11:01; source organism: Yellow fever virus 17D,0.109 µM
KVGHVGLYR,Kd,HLA-A*03:01 [3]; [6],0.046 µM
same,Kd,HLA-A*31:01; [6],0.0196 µM
ISVLTGSSI,Kd,HLA-B*15:01 [2]; [7],0.0343 µM
same,Kd,HLA-B*08:01; [7],≥ 20.6 µM
same,Kd,HLA-B*15:03; [7],24.9 nM
same,Kd,HLA-A*32:01; [7],3.91 µM
same,Kd,HLA-A*30:01; [7],3.22 µM
VSSHKGWAK,Kd,HLA-B*51:01; [8],≥ 20 µM
same,Kd,HLA-B*57:01; [8],≥ 20 µM
same,Kd,HLA-B*39:01; [8],≥ 20 µM
same,Kd,HLA-B*15:17; [8],≥ 20 µM
same,Kd,HLA-A*26:01; [8],≥ 20 µM
same,Kd,HLA-B*46:01; [8],≥ 20 µM
same,Kd,HLA-A*02:01; [8],≥ 20 µM
same,Kd,HLA-A*69:01; [8],≥ 20 µM
same,Kd,HLA-B*27:03; [8],≥ 20 µM
same,Kd,HLA-A*02:19; [8],≥ 20 µM
same,Kd,HLA-A*24:03; [8],≥ 20 µM
same,Kd,HLA-A*03:01 [1]; [8],≥ 20 µM
same,Kd,HLA-A*23:01; [8],≥ 20 µM
same,Kd,HLA-A*02:16; [8],≥ 20 µM
same,Kd,HLA-A*02:12; [8],≥ 20 µM
same,Kd,HLA-A*68:02; [8],≥ 20 µM
same,Kd,HLA-A*11:01; [8],0.002 µM
same,Kd,HLA-A*02:11; [8],≥ 20 µM
same,Kd,HLA-A*02:03; [8],≥ 20 µM
LLSLEIVFF,Kd,HLA-B*15:01 [2]; [7],0.142 µM
same,Kd,HLA-B*15:03; [7],2110 nM
RTYSLLNRK,Kd,HLA-B*51:01; [9],≥ 20 µM
same,Kd,HLA-B*15:01 [4]; [9],≥ 20 µM
same,Kd,HLA-B*57:01; [9],≥ 20 µM
same,Kd,HLA-B*39:01; [9],≥ 20 µM
same,Kd,HLA-B*15:17; [9],≥ 20 µM
same,Kd,HLA-A*26:01; [9],≥ 20 µM
same,Kd,HLA-B*46:01; [9],≥ 20 µM
same,Kd,HLA-B*18:01; [9],≥ 20 µM
same,Kd,HLA-A*02:01; [9],≥ 20 µM
same,Kd,HLA-A*31:01; [9],0.0155 µM
same,Kd,HLA-A*69:01; [9],≥ 20 µM
same,Kd,HLA-B*27:03; [9],≥ 20 µM
same,Kd,HLA-A*02:19; [9],≥ 20 µM
same,Kd,HLA-A*24:03; [9],≥ 20 µM
same,Kd,HLA-A*29:02; [9],≥ 20 µM
same,Kd,HLA-A*03:01 [1]; source organism: Reston ebolavirus - Reston,0.144 µM
same,Kd,HLA-A*23:01; [9],≥ 20 µM
same,Kd,HLA-A*02:16; [9],≥ 20 µM
same,Kd,HLA-A*02:12; [9],≥ 20 µM
same,Kd,HLA-A*68:02; [9],≥ 20 µM
same,Kd,HLA-A*02:11; [9],≥ 20 µM
same,Kd,HLA-A*02:03; [9],≥ 20 µM
AVIVWLLLR,Kd,HLA-A*03:01 [3]; [10],≥ 20 µM
same,Kd,HLA-A*31:01; [10],0.743 µM
EAYCALLCK,Kd,HLA-B*51:01; [11],≥ 20 µM
same,Kd,HLA-B*57:01; [11],≥ 20 µM
same,Kd,HLA-B*39:01; [11],≥ 20 µM
same,Kd,HLA-A*26:01; [11],≥ 20 µM
same,Kd,HLA-B*46:01; [11],≥ 20 µM
same,Kd,HLA-B*18:01; [11],≥ 20 µM
same,Kd,HLA-A*02:01; [11],≥ 20 µM
same,Kd,HLA-A*69:01; [11],≥ 20 µM
same,Kd,HLA-B*27:03; [11],≥ 20 µM
same,Kd,HLA-A*02:19; [11],≥ 20 µM
same,Kd,HLA-A*24:03; [11],≥ 20 µM
same,Kd,HLA-A*29:02; [11],≥ 20 µM
same,Kd,HLA-A*03:01 [1]; [11],≥ 20 µM
same,Kd,HLA-A*23:01; [11],≥ 20 µM
same,Kd,HLA-A*02:16; [11],≥ 20 µM
same,Kd,HLA-A*02:12; [11],≥ 20 µM
same,Kd,HLA-A*11:01; [11],≥ 20 µM
same,Kd,HLA-A*02:11; [11],≥ 20 µM
same,Kd,HLA-A*02:03; [11],≥ 20 µM
LATFTVNIF,Kd,HLA-B*15:03; [5],35.1 nM
SKFVYVSVM,Kd,HLA-B*15:03; [5],1.63 nM
TGHPWITFK,Kd,HLA-A*31:01; source organism: Cupriavidus metallidurans CH34,0.0482 µM
same,Kd,HLA-A*03:01 [1]; [12],0.945 µM
same,Kd,HLA-A*11:01; [12],0.116 µM
QYQNEINYL,Kd,HLA-A*24:03; [13],0.003 µM
same,Kd,HLA-A*23:01; [13],0.002 µM
WSTSFTNIF,Kd,HLA-B*15:03; [7],5.88 nM
KKYNNDKSF,Kd,HLA-B*15:01 [2]; [5],6.62 µM
same,Kd,HLA-B*08:01; [5],3.82 µM
same,Kd,HLA-B*15:03; [5],0.0778 nM
same,Kd,HLA-A*32:01; [5],11.4 µM
same,Kd,HLA-A*30:01; [5],≥ 20.3 µM
KVKDLFNTK,Kd,HLA-B*15:01 [2]; [5],4.46 µM
same,Kd,HLA-B*08:01; [5],≥ 42 µM
same,Kd,HLA-B*15:03; [5],≥ 22100 nM
same,Kd,HLA-A*32:01; [5],2.48 µM
same,Kd,HLA-A*30:01; [5],0.0377 µM
TSCAPMMQK,Kd,HLA-B*51:01; [14],≥ 20 µM
same,Kd,HLA-B*57:01; [14],≥ 20 µM
same,Kd,HLA-B*39:01; [14],≥ 20 µM
same,Kd,HLA-A*26:01; [14],≥ 20 µM
same,Kd,HLA-B*46:01; [14],≥ 20 µM
same,Kd,HLA-B*18:01; [14],≥ 20 µM
same,Kd,HLA-A*02:01; [14],≥ 20 µM
same,Kd,HLA-A*69:01; [14],≥ 20 µM
same,Kd,HLA-B*27:03; [14],≥ 20 µM
same,Kd,HLA-A*02:19; [14],≥ 20 µM
same,Kd,HLA-A*24:03; [14],≥ 20 µM
same,Kd,HLA-A*23:01; [14],≥ 20 µM
same,Kd,HLA-A*02:16; [14],≥ 20 µM
same,Kd,HLA-A*02:12; [14],≥ 20 µM
same,Kd,HLA-A*68:02; [14],≥ 20 µM
same,Kd,HLA-A*11:01; [14],0.006 µM
same,Kd,HLA-A*02:11; [14],≥ 20 µM
same,Kd,HLA-A*02:03; [14],≥ 20 µM
SSADLSLEK,Kd,HLA-A*31:01; [15],≥ 20 µM
same,Kd,HLA-A*11:01; [15],0.0027 µM
AILSLNLRI,Kd,HLA-B*15:01 [2]; [5],0.142 µM
same,Kd,HLA-B*08:01; [5],1.28 µM
same,Kd,HLA-B*15:03; [5],237 nM
same,Kd,HLA-A*32:01; [5],0.151 µM
same,Kd,HLA-A*30:01; [5],0.155 µM
LSDAARLFL,Kd,HLA-B*51:01; [16],≥ 20 µM
same,Kd,HLA-B*15:01 [4]; [16],≥ 20 µM
same,Kd,HLA-B*57:01; [16],≥ 20 µM
same,Kd,HLA-B*39:01; [16],≥ 20 µM
same,Kd,HLA-A*26:01; [16],≥ 20 µM
same,Kd,HLA-B*46:01; [16],≥ 20 µM
same,Kd,HLA-B*18:01; [16],≥ 20 µM
same,Kd,HLA-A*02:01; [16],≥ 20 µM
same,Kd,HLA-A*69:01; [16],≥ 20 µM
same,Kd,HLA-B*27:03; [16],≥ 20 µM
same,Kd,HLA-A*02:19; [16],≥ 20 µM
same,Kd,HLA-A*24:03; [16],≥ 20 µM
same,Kd,HLA-A*29:02; [16],≥ 20 µM
same,Kd,HLA-A*03:01 [1]; [16],≥ 20 µM
same,Kd,HLA-A*23:01; [16],≥ 20 µM
same,Kd,HLA-A*02:16; [16],≥ 20 µM
same,Kd,HLA-A*02:12; [16],≥ 20 µM
same,Kd,HLA-A*68:02; [16],≥ 20 µM
same,Kd,HLA-A*02:11; [16],≥ 20 µM
same,Kd,HLA-A*02:03; [16],≥ 20 µM
same,Kd,HLA-A*01:01,0.303 µM
SIRSMSRSI,Kd,HLA-B*15:01 [2]; [7],0.362 µM
same,Kd,HLA-B*08:01; [7],0.0772 µM
same,Kd,HLA-B*15:03; [7],10300 nM
same,Kd,HLA-A*32:01; [7],1.36 µM
same,Kd,HLA-A*30:01; [7],0.132 µM
